According to US20150139990A1 (DAINIPPON SUMITOMO PHARMA, published 2015):

How the values were obtained:
[1] = target: T1, human CD81 mutant V135A (human, UniProt P60033 1-236, limits assumed); test: ELISA
T1 construct: as m30; not shown: C-terminal V5 and 6xHis tags
T1 sequence: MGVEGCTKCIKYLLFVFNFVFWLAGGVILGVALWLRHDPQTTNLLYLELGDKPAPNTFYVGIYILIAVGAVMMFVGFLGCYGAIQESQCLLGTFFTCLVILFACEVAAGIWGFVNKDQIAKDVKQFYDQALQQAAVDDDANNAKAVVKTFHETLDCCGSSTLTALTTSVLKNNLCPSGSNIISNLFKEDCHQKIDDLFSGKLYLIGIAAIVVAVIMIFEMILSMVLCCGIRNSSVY
In short: (§1)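 Human CD81 point mutants in pcDNA-DEST40 with C-terminal V5 and 6×His tags were expressed transiently in CHO cells for 48 hours. Membranes were solubilised with 1% n-octylglucoside and loaded at 5 μg/100 μL/well on Ni-NTA His Sorb plates (3 hours, 4° C). Antibody binding (1 hour, room temperature) was detected with HRP anti-human IgG4, TMB and absorbance at 450 nm. Relative binding affinity is the percentage of wild-type CD81 binding, corrected for V5-tag expression.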

[2] = target: T2, human CD81 mutant D137A (human, UniProt P60033 1-236, limits assumed); test: ELISA
T2 construct: as m30; not shown: C-terminal V5 and 6xHis tags
T2 sequence: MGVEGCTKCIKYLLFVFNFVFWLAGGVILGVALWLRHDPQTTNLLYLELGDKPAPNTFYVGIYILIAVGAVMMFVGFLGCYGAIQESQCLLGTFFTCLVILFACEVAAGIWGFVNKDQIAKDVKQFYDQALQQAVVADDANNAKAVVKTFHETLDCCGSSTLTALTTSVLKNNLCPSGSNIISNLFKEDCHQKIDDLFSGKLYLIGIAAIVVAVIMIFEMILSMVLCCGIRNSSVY
In short: as §1

[3] = target: T3, human CD81 mutant A164T (human, UniProt P60033 1-236, limits assumed); test: ELISA
T3 construct: as m30; not shown: C-terminal V5 and 6xHis tags
T3 sequence: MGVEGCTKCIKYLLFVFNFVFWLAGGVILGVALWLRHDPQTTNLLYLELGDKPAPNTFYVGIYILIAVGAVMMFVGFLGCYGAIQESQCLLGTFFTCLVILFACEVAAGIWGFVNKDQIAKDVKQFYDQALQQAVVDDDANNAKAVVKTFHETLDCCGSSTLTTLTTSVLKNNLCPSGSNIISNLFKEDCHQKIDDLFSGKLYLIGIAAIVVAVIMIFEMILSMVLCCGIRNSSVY
In short: as §1

[4] = target: T4, human CD81 mutant L165A (human, UniProt P60033 1-236, limits assumed); test: ELISA
T4 construct: as m30; not shown: C-terminal V5 and 6xHis tags
T4 sequence: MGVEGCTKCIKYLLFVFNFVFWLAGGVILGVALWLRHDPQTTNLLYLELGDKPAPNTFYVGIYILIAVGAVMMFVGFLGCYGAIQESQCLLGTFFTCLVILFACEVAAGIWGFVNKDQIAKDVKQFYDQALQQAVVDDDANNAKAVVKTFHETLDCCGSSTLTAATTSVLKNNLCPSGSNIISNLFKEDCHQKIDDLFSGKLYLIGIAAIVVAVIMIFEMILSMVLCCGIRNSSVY
In short: as §1

[5] = target: T5, human CD81 mutant V169A (human, UniProt P60033 1-236, limits assumed); test: ELISA
T5 construct: as m30; not shown: C-terminal V5 and 6xHis tags
T5 sequence: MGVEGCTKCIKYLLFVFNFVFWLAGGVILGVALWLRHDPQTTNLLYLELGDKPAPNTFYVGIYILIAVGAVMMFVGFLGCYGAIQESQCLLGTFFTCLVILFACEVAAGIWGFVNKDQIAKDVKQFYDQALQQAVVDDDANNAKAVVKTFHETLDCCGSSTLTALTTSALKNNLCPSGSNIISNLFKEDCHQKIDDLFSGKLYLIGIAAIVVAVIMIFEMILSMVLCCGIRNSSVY
In short: as §1

[6] = target: T6, human CD81 on CD81-expressing cells (Jurkat E6.1, human PBMC, Ramos) (human, UniProt P60033 1-236); test: flow cytometry, Jurkat E6.1 cells
T6 construct: endogenous CD81 of the cells; also called wild type human CD81
T6 sequence: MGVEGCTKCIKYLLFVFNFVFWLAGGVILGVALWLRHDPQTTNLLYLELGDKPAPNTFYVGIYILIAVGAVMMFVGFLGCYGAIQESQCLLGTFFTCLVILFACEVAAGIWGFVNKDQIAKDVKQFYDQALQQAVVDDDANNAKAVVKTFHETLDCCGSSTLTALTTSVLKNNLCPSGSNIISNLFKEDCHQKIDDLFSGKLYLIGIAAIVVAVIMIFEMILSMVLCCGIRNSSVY
Source text: Based on known information (JOURNAL OF VIROLOGY., 79, 4316-4328, 2005), Jurkat E6.1 cells and human PBMC (Peripheral Blood Mononuclear cells) were used as human CD81-expressing cells to confirm binding of the antibodies of the present invention obtained in Example 1 to the human CD81-expressing cells. Jurkat E6.1 cells were purchased from European Collection of Cell Cultures (ECACC) (Cat No. 88042803). Human PBMC were purchased from KAC Co., Ltd. (KAC). These cells were collected by centrifugation (4,000 rpm, 3 min, 4° C.) and suspended in FACS staining buffer (phosphate buffer, 0.09% sodium azide, 1% bovine serum albumin (BSA: Hyclone Laboratories)). The number of viable cells was counted using trypan blue and 10⁶ cells/100 μl were added in an eppendorf tube.
To the cells prepared in (1) above was added the anti-human CD81 antibody (002-A07 or 005-001) prepared in Example 1 or a human IgG4 (Acris) as a control (0.1 μg), and the cells were incubated for 20 min at 4° C. […] The binding ratio (%) of the anti-human CD81 antibody to the cells was analyzed by flow cytometry using FACS Calibur (BD Biosciences) and calculated as the percentage of cells having a PE-derived fluorescent intensity greater than that observed when the control IgG4 is used. […]

B1: 002-A07 IgG4 antibody (antibody)
heavy: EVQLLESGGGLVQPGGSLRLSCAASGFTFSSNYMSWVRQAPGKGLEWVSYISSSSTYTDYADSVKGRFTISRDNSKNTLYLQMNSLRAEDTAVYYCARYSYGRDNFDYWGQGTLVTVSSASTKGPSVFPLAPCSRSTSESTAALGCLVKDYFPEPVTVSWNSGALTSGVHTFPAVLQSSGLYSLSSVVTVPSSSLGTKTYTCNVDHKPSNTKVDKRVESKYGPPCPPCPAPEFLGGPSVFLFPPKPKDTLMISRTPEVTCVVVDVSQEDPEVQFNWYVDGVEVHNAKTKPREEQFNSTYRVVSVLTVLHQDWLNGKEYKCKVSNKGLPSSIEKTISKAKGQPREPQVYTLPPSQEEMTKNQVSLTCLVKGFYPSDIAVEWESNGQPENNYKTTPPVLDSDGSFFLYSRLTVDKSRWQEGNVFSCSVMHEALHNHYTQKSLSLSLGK
light: QSVLTQPPSASGTPGQRVTISCTGSTSNIGAGYDTHWYQQLPGTAPKLLIYGNSNRPSGVPDRFSGSKSGTSASLAISGLRSEDEADYYCQSYDTNLSVWVFGGGTKLTVLGQPKAAPSVTLFPPSSEELQANKATLVCLISDFYPGAVTVAWKADSSPVKAGVETTTPSKQSNNKYAASSYLSLTPEQWKSHRSYSCQVTHEGSTVEKTVAPTECS
notes: human IgG4 S228P, lambda light chain
relative binding affinity [1]: < 20% | relative binding affinity [2]: < 20% | relative binding affinity [3]: < 20% | relative binding affinity [4]: < 20% | relative binding affinity [5]: < 20% | binding ratio to cells (%) [6]: 100%
